Measured values from publication PMC6414729.

Assays:
[1] = substrate: CB-PB phycobilisome (truncated phycobilisome of the CB mutant of Synechocystis PCC 6803) (Synechocystis PCC 6803) (UniProt Q01951)
[2] = substrate: CB-PB phycobilisome (truncated phycobilisome of the CB mutant of Synechocystis PCC 6803) (Synechocystis PCC 6803) (UniProt Q01951); remark: listed apart in the source
[3] = compound: CB-PB phycobilisome (truncated phycobilisome of the CB mutant of Synechocystis PCC 6803) (Synechocystis PCC 6803) (UniProt Q01951); assay: ABEL trap single-molecule fluorescence spectroscopy; pre-activated and pre-bound OCP + CB-PB (40:1) diluted to ~10 pM in 0.8 M phosphate buffer pH 7.5 with 1 M sucrose; single complexes in free solution; followed up to 5 h after dilution
[4] = substrate: CB-PB phycobilisome (truncated phycobilisome of the CB mutant of Synechocystis PCC 6803) (Synechocystis PCC 6803) (UniProt Q01951); assay: bulk fluorescence quenching (emission spectrum and lifetime decay); OCP:CB-PB 40:1 in 0.8 M phosphate buffer, illuminated with white light 10 min at 23 °C; bulk sample ~25 nM

B1: Orange Carotenoid Protein, photoactivated red form (OCP^R) (natural protein)
chain: MPFTIDSARGIFPNTLAADVVPATIARFSQLNAEDQLALIWFAYLEMGKTLTIAAPGAASMQLAENALKEIQAMGPLQQTQAMCDLANRADTPLCRTYASWSPNIKLGFWYRLGELMEQGFVAPIPAGYQLSANANAVLATIQGLESGQQITVLRNAVVDMGFTAGKDGKRIAEPVVPPQDTASRTKVSIEGVTNATVLNYMDNLNANDFDTLIELFTSDGALQPPFQRPIVGKENVLRFFREECQNLKLIPERGVTEPAEDGFTQIKVTGKVQTPWFGGNVGMNIAWRFLLNPEGKIFFVAIDLLASPKELLNFA
bulk fluorescence emission of fully quenched OCP + CB-PB (40:1) relative to unquenched CB-PB [1]: 9% | bulk fluorescence lifetime, shorter component of the quenched OCP + CB-PB complex (unquenched 1.6 ns) [1]: 0.1 ns | brightness of quenched state Q1 relative to unquenched CB-PB [2]: 11% | brightness of quenched state Q2 relative to unquenched CB-PB [2]: 6% | stoichiometry N [3]: 2 | percent of complexes quenched [4]: > 95%
